Assay results taken from patent US20180155451A1 (published 2018).
Substitutions are numbered along the chain they refer to.

T1: FcγRIIa R (FcγRIIa, allotype R, Arg at position 131), extracellular domain with C-terminal His tag (human, UniProt P12318 34-217)
T1 construct: extracellular domain; soluble receptor used as Biacore analyte; also called 2aR; FcgRIIa R
T1 sequence (looked up): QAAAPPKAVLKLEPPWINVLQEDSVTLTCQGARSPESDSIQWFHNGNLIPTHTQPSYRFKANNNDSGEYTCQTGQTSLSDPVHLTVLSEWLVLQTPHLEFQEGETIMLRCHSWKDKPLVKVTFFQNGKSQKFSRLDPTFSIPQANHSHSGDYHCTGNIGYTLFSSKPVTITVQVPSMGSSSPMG

T2: FcγRIIb, extracellular domain with C-terminal His tag (human, UniProt P31994 43-217)
T2 construct: extracellular domain; soluble receptor used as Biacore analyte; also called 2b; FcgRIIb
T2 sequence (looked up): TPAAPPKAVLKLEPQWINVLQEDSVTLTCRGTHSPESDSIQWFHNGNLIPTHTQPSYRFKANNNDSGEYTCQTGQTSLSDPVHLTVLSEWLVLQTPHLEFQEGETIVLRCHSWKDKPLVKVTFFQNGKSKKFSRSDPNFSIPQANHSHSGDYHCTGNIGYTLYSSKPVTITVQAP

T3: FcγRIIa H (FcγRIIa type H, His at position 131), extracellular domain with C-terminal His tag (human, UniProt P12318 34-217)
T3 construct: extracellular domain; Expressed in FreeStyle293 cells; analyte in the Biacore assay; also called FcgRIIa H; 2aH; not shown: His tag at the C terminus
T3 sequence (looked up): T1 sequence (looked up) with R134H

B1: heterodimerized antibody GpH7-A5/GpH7-B3 variant S267_08L/GpL16-k0 (antibody, human IgG1, kappa)
heavy 1: not shown
heavy 2: not shown
light: DIVMTQSPLSLPVTPGEPASISCQASESLVHSNRNTYLHWYLQKPGQSPQLLIYKVSNRFSGVPDRFSGSGSGTDFTLKISRVEAEDVGVYYCSQNTHVPPTFGQGTKVEIERTVAAPSVFIFPPSDEQLKSGTASVVCLLNNFYPREAKVQWKVDNALQSGNSQESVTEQDSKDSTYSLSSTLTLSKADYEKHKVYACEVTHQGLSSPVTKSFNRGEC
notes: He Ab: anti-glypican-3 IgG1, alteration in one H chain only; also called He Ab
B2: heterodimerized antibody GpH7-A5/GpH7-B3 variant A327_18N/GpL16-k0 (antibody, human IgG1, kappa)
heavy 1: not shown
heavy 2: not shown
light: B1 light
notes: as for B1
B3: heterodimerized antibody GpH7-A5/GpH7-B3 variant L328_12R/GpL16-k0 (antibody, human IgG1, kappa)
heavy 1: not shown
heavy 2: not shown
light: B1 light
notes: as for B1
B4: heterodimerized antibody GpH7-A5/GpH7-B3 variant A327_07I/GpL16-k0 (antibody, human IgG1, kappa)
heavy 1: not shown
heavy 2: not shown
light: B1 light
notes: as for B1
B5: heterodimerized antibody GpH7-A5/GpH7-B3 variant A327_10E/GpL16-k0 (antibody, human IgG1, kappa)
heavy 1: not shown
heavy 2: not shown
light: B1 light
notes: as for B1
B6: heterodimerized antibody GpH7-A5/GpH7-B3 variant A327_12R/GpL16-k0 (antibody, human IgG1, kappa)
heavy 1: not shown
heavy 2: not shown
light: B1 light
notes: as for B1
B7: heterodimerized antibody GpH7-A5/GpH7-B3 variant L328_11K/GpL16-k0 (antibody, human IgG1, kappa)
heavy 1: not shown
heavy 2: not shown
light: B1 light
notes: as for B1
B8: heterodimerized antibody GpH7-A5/GpH7-B3 variant A327_09D/GpL16-k0 (antibody, human IgG1, kappa)
heavy 1: not shown
heavy 2: not shown
light: B1 light
notes: as for B1
B9: GpH7-A5/GpH7-B3 variant A327_12R/GpL16-k0 (antibody, human IgG1, kappa)
heavy 1: not shown
heavy 2: not shown
light: B1 light
notes: He Ab; IgG1; mutation in one H chain only; also called He Ab
B10: GpH7-A5/GpH7-B3 variant L328_11K/GpL16-k0 (antibody, human IgG1, kappa)
heavy 1: not shown
heavy 2: not shown
light: B1 light
notes: as for B9
B11: GpH7-A5/GpH7-B3 variant L328_12R/GpL16-k0 (antibody, human IgG1, kappa)
heavy 1: not shown
heavy 2: not shown
light: B1 light
notes: as for B9
B12: GpH7-A5/GpH7-B3 variant Y300_09D/GpL16-k0 (antibody, human IgG1, kappa)
heavy 1: not shown
heavy 2: not shown
light: B1 light
notes: heterodimerized IgG1; mutation in one H chain only; also called He Ab
B13: GpH7-A5/GpH7-B3 variant Y300_02A/GpL16-k0 (antibody, human IgG1, kappa)
heavy 1: not shown
heavy 2: not shown
light: B1 light
notes: as for B12
B14: GpH7-A5/GpH7-B3 variant Y300_06M/GpL16-k0 (antibody, human IgG1, kappa)
heavy 1: not shown
heavy 2: not shown
light: B1 light
notes: as for B12
B15: GpH7-A5/GpH7-B3 variant Y300_13S/GpL16-k0 (antibody, human IgG1, kappa)
heavy 1: not shown
heavy 2: not shown
light: B1 light
notes: as for B12
B16: GpH7-A5/GpH7-B3 variant Y300_03V/GpL16-k0 (antibody, human IgG1, kappa)
heavy 1: not shown
heavy 2: not shown
light: B1 light
notes: as for B12
B17: GpH7-A5/GpH7-B3 variant Y300_08L/GpL16-k0 (antibody, human IgG1, kappa)
heavy 1: not shown
heavy 2: not shown
light: B1 light
notes: as for B12

target: T1, FcγRIIa R (FcγRIIa, allotype R, Arg at …); test: Biacore SPR; He/Con_2aR divided by He/Con_2b (FcγRIIb)
Experimental: (§1) The heterodimerized antibodies He Abs in which one of the H chains was introduced with an alteration were assayed for their binding activities to each activating FcγR and inhibitory FcγR according to the method described in Example 4. […] The activating FcγRs in FIGS. 26, 27, 28, and 29 are FcγRIa, FcγRIIa (R), FcγRIIa (H), and FcγRIIIa, respectively.
(§2) Analysis of interaction between objective antibody and the FcγR was carried out using Biacore T100 (GE Healthcare). HBS-EP+ (GE Healthcare) was used as the running buffer, and the measurement temperature was set to 25° C. Chips produced by immobilizing the antigen peptide by the amine coupling method to a Series S Sencor Chip CM5 (GE Healthcare), or alternatively, chips produced by allowing preliminarily biotinylated antigen peptides to interact with and immobilize onto a Series S Sensor Chip SA (certified) (GE Healthcare) were used. Antibodies of interest were captured onto an antigen peptide-immobilized chip, and allowed to interact to each FcγR diluted with running buffer. To regenerate and repeatedly use the chip, the antibodies captured on the chip were washed off by reacting 10 mM glycine-HCl, pH 1.5.

Binder | IIaR/IIb (He_2aR/2b)
B1 | 0.66
B2 | 0.79
B3 | 0.54
B4 | 0.77
B5 | 0.78
B6 | 0.67
B7 | 0.33
B8 | 0.72

target: T1, FcγRIIa R (FcγRIIa, allotype R, Arg at …); test: Biacore SPR; binding relative to GpH7-A5/GpH7-B3/GpL16-k0 (=100)
Experimental: as §1, §2

Binder | He/Con_2aR (IIaR binding)
B1 | 72.1 % of control
B2 | 88.9 % of control
B3 | 5 % of control
B4 | 98 % of control
B5 | 110 % of control
B6 | 6 % of control
B7 | 2.5 % of control
B8 | 124 % of control

target: T2, FcγRIIb, extracellular domain with …; test: as above
Experimental: as §1, §2

Binder | He/Con_2b (IIb binding)
B1 | 109 % of control
B2 | 113 % of control
B4 | 127 % of control
B5 | 140 % of control
B8 | 172 % of control

target: T3, FcγRIIa H (FcγRIIa type H, His at …); test: SPR Biacore; He/Con_2aH divided by He/Con_2b (reference: FcgRIIb)

Binder | He_2aH/2b (IIaH/IIb)
B9 | 1.26
B10 | 4.27
B11 | 4.6

target: T3, FcγRIIa H (FcγRIIa type H, His at …); test: SPR Biacore, captured antibody, FcgR analyte; GpH7-A5/GpH7-B3/GpL16-k0 = 100

Binder | He/Con_2aH
B9 | 11.3 % of HeCon Ab
B10 | 32.2 % of HeCon Ab
B11 | 42.5 % of HeCon Ab

target: T4, FcγRIa (human, UniProt P12314 16-292); test: SPR (Biacore), antibody captured on antigen peptide chip, FcγRIa as analyte; relative binding amount
T4 construct: extracellular domain; also called FcgRI; CD64; not shown: C-terminal His tag
T4 sequence (P12314 16-292): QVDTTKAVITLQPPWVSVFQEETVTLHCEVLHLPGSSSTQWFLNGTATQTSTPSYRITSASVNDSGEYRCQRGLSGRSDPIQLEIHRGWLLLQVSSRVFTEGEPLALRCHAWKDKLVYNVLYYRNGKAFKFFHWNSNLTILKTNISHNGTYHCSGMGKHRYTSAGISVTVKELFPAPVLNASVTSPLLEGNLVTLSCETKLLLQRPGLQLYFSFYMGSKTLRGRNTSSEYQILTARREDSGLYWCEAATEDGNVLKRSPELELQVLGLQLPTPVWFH
Experimental: as §2

Binder | He/Con_1a
B12 | 112 % of control (GpH7-A5/GpH7-B3/GpL16-k0 = 100)
B13 | 112 % of control (GpH7-A5/GpH7-B3/GpL16-k0 = 100)
B14 | 112 % of control (GpH7-A5/GpH7-B3/GpL16-k0 = 100)
B15 | 111 % of control (GpH7-A5/GpH7-B3/GpL16-k0 = 100)
B16 | 117 % of control (GpH7-A5/GpH7-B3/GpL16-k0 = 100)
B17 | 113 % of control (GpH7-A5/GpH7-B3/GpL16-k0 = 100)
